The Kd is the equilibrium constant for the complex coming apart. Read a low Kd as a tighter complex.

The text below walks through data of PMC10152144 (2026).

The target of the assay is Arp2/3 complex (Bos taurus, UniProt A7MB62). The assay can be described thus: single-filament microfluidics TIRF detachment assay.

B1: VCA motif VCA (protein)
chain: PSDGDHQVPTTAGNKAALLDQIREGAQLKKVEQNSRPVSCSGRDALLDQIRQGIQLKSVADGQESTPPTPAPTSGIVGALMEVMQKRSKAIHSSDEDEDEDDEEDFEDDDEWED
Regarding B1, the Kd was 560 nM.

B2: GMF (protein)
chain: SDSLVVCEVDPELKETLRKFRFRKETNNAAIIMKVDKDRQMVVLEDELQNISPEELKLELPERQPRFVVYSYKYVHDDGRVSYPLCFIFSSPVGCKPEQQMMYAGSKNRLVQTAELTKVFEIRTTDDLTETWLKEKLAFFR
In the case of B2, the Kd was determined as 70 nM.
